Laboratory results: US20110097300A1 (SUNNYBROOK HEALTH SCIENCES CENTRE, published 2011)
Where no end group is shown, it is not given here. Maleimide‑PEO2‑Biotin = EZ-link-PEO-maleimide-biotin, biotinylated PEG-maleimide moiety (29 angstrom)

Biological target: T1, Tie 2 of EaHy926 endothelial cells (UniProt Q02763 23-1124, limits assumed)
T1 construct: whole, on cells; also called Tek
Assay: avidin agarose pull down from EaHy926 whole cell lysate, anti-Tie 2 immunoblot
Method: In this example, the ability of Vasculotide to bind the Tie 2 receptor, despite the engineered modifications, was tested using an in vitro pull down assay. In the pull down assay, a cell lysate of EaHy926 endothelial cells (which express high levels of Tie 2) was prepared in Phospho Lipase Cγ lysis buffer (50 mM Hepes buffer pH 7.5, 150 mM NaCl, 10% glycerol, 1% Triton X-100, 1.5 mM MgCl₂, 1.0 mM EGTA, 10 mM NaPPi, […], 2 mM Na₃VO₄, 1× aprotinin, 1× leupeptin and 1× PMSF). The whole cell lysate was mixed with either unclustered biotinylated Vasculotide or biotinylated irrelevant peptide. The biotinylated peptides then were isolated with avidin agarose and subsequently tested for their ability to precipitate Tie 2 via standard immunoblot analysis using anti-Tie 2 antibody.

T1 sequence (Q02763 23-1124 limits assumed): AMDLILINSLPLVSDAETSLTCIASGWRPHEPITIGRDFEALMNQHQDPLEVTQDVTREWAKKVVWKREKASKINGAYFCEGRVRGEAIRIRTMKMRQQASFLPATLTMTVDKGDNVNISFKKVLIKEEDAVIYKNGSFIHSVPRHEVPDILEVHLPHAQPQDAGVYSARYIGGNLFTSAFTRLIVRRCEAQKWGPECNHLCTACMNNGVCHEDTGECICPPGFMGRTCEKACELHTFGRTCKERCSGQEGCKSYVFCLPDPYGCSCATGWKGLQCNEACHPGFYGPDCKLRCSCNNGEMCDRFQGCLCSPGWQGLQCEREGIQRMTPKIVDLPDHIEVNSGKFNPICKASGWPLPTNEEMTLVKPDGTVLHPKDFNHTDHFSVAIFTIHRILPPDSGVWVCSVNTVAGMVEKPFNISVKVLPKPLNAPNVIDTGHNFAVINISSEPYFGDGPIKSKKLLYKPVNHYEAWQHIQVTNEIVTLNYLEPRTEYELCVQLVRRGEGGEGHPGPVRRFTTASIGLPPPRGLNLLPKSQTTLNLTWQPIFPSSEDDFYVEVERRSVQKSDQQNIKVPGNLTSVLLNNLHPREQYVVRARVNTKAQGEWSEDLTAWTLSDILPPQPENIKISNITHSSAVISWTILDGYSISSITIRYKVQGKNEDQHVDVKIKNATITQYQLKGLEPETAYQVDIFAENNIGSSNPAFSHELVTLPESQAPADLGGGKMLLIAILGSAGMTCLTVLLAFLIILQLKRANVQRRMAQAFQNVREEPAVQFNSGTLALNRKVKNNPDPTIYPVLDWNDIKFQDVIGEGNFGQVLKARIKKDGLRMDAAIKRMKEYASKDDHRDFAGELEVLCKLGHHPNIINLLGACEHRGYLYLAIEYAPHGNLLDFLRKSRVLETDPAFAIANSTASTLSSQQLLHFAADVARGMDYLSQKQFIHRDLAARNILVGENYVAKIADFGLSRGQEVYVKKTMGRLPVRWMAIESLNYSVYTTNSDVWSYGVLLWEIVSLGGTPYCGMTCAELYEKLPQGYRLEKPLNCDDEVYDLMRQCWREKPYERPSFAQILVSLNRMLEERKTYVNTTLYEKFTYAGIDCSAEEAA

B1: unclustered Vasculotide (biotinylated T7 peptide-PEG monomer) (peptide)
peptide: C(Maleimide‑PEO2‑Biotin)HHHRHSF-OH
notes: L-amino acids; monomer, not clustered with avidin; also called T7-biotin; non-clustered Vasculotide
  binding result: binds
